Laboratory results reported in patent US20250154215A1, “PHARMACEUTICAL COMPOSITION FOR TREATING COLITIS OR COLORECTAL CANCER COMPRISING COLON-TARGETED S100A8/A9-DERIVED SPECIFIC PEPTIDE” (Industry-University Cooperation Foundation Hanyang …, priority 2023, published 2025).

Columns and labels:
[1] = DSS-induced acute colitis mouse model; type: in vivo, mice; settings: treatment for three consecutive days
[2] = design: species or system mice; settings: mouse, in vivo, ip, 1 mg/kg
Protocol: Female C57BL/6 mice with body weight of 16 to 18 g were used for PK studies. S100A8/A9 peptide or rCT-S100A8/A9 protein (1 mg/kg) was administered to the mice by intraperitoneal injection. Whole blood samples ([…]) were collected serially from the orbital vein at 0.17, 0.5, 1, 2, 4, and 6 hours after drug administration. Blood samples were centrifuged at 12,000 rpm for five minutes at 4° C., and plasma was collected. To a 10 μL plasma sample, 20 μL of 0.1% formic acid in acetonitrile was added along with amlodipine, which was an internal standard (IS), at a concentration of 500 ng/mL, and the resulting mixture was vortexed. Samples were then centrifuged at 13,200 rpm for five minutes, and 10 μL aliquots were injected for LC-MS/MS analysis.

[3] = design: species or system BALB/c mice; settings: mouse, in vivo
Protocol: FIGS. 12A-12E show biological effects of rCT-S100A8/9 in tumor-bearing mice. […] Each vertical bar represents the mean±SD of cell viability at each dose. Data is shown as the mean±SD of six experiments. […] HCT116 cells were injected subcutaneously into the flanks of BALB/c mice as described in the Methods section. Mice were administered one or two intraperitoneal doses and sacrificed on day 5. Their expression was assessed by IB in various organs of mice. WCLs were used for IB including αActin. Data is representative of four independent experiments with similar results. […] E-cadherin, N-cadherin, and β-catenin staining of the tumors. […] IgG levels specific for rCT-S100A8/9 or ovalbumin (OVA) were measured using ELISA. […] Serum cytokine levels were measured 30 days after administration. […]
Cytokine content was analyzed in cell culture supernatants and mouse sera using the BD OptEIA ELISA set (BD Pharmingen) to detect TNF-α, IL-6, IL-1β, and IL-18. […]
(§1) A major concern with protein therapeutics derived from endogenous human proteins is that they may induce strong anti-therapeutic antibody responses and stimulate undesirable immune responses. […] Therefore, the immunogenicity of rCT-S100A8/A9 was assessed by measuring the production of anti-rCT-S100A8/A9 antibodies in mice immunized with the peptide according to the present invention. […]

OxaR HCT116 xenograft = test: Parental or OxaR HCT116 xenograft tumor growth inhibition; type: in vivo, mice
Protocol: For tumor xenograft experiments, 4- to 6-week-old female athymic nude mice (Central Lab Animal Inc., Seoul, Korea) were used. 1×10^6 HCT116 cells suspended in 0.1 mL of a cell culture medium were injected subcutaneously into the animals' right axillary region and observed for 7 to 10 days while the tumor volume was measured. Treatment was initiated when the tumor size reached an average volume of 200 or 600 mm^3. The tumor volume was measured with a skin caliper every three days, calculated as (tumor length)×(tumor width)^2×0.5, and expressed in mm^3. All animals were maintained in a specific pathogen-free environment. All animal-related procedures were examined and approved by the Hanyang University Institutional Animal Care and Use Committee (protocol numbers: 2022-0145 and 2022-0266).
Next, tumor growth inhibition assays were performed under various tumor growth conditions, and rCT-S100A8/A9 treatment was started according to the size of the established tumors. For initial tumor growth, rCT-S100A8/A9 treatment was started 10 days after tumor establishment, and for actively growing tumors, rCT-S100A8/A9 treatment was started 21 days after tumor establishment.

[4] = design: species or system BALB/c mice; settings: mouse, in vivo; remark: listed apart in the source
Protocol: FIGS. 12A-12E show biological effects of rCT-S100A8/9 in tumor-bearing mice. […] Each vertical bar represents the mean±SD of cell viability at each dose. Data is shown as the mean±SD of six experiments. […] HCT116 cells were injected subcutaneously into the flanks of BALB/c mice as described in the Methods section. Mice were administered one or two intraperitoneal doses and sacrificed on day 5. Their expression was assessed by IB in various organs of mice. WCLs were used for IB including αActin. Data is representative of four independent experiments with similar results. […] E-cadherin, N-cadherin, and β-catenin staining of the tumors. […] Mice were immunized by each route (i.v. or i.p.) every 3 days, and blood was collected on day 40. IgG levels specific for rCT-S100A8/9 or ovalbumin (OVA) were measured using ELISA. Values represent the mean optical density (OD) and standard deviation at 450 nm. Each group included five mice. […] Serum cytokine levels were measured 30 days after administration. […]
as §1

[5] = The results of in vitro plasma stability, microsomal stability, CYP inhibition and PK profile of S100A8/A9 peptides and rCT-S100A8/A9 proteins
Protocol: Table printed on a drawing sheet, Fig. 5B
Title: The results of in vitro plasma stability, microsomal stability, CYP inhibition and PK profile of S100A8/A9 peptides and rCT-S100A8/A9 proteins
The patent's description of the figure: FIGS. 5A and 5B show the drug-like properties of rCT-S100A8/A9. […] Bacteria-purified 6×His-rCT-S100A8/9, rVehicle or rCT was analyzed by Coomassie staining or IB using αHis (bottom, left). BMDMs were incubated with rVehicle, rCT, or rCT-S100A8/9 for the indicated times and at the indicated concentrations, and then cell viability was measured by MTT assay (bottom, right). […] HLM, human liver microsomes; CYP, cytochrome P450. aTmax, arrival time; AUClast, total area under the plasma concentration-time curve from time 0 to the time of the last measurement; Cmax, maximum plasma concentration;
First reader's note: One record is the S100A8/A9 peptide and the other the recombinant rCT-S100A8/A9 protein; the CYP columns give remaining CYP isoform activity (CYP inhibition).

[6] = immunostaining, vs control group

B1: TWYKIAFQRNRKTWYKIAFQRNRKTWYKIAFQRNRKTWYKIAFQRNRKTWYKIAFQRNRKGGFLVIKGGAHKSHKGGITIITFGGGHHGGFLVIKGGAHKSHKGGITIITFGGGHHGGFLVIKGGAHKSHKGGITIITFGGGHHGG (protein)
chain: TWYKIAFQRNRKTWYKIAFQRNRKTWYKIAFQRNRKTWYKIAFQRNRKTWYKIAFQRNRKGGFLVIKGGAHKSHKGGITIITFGGGHHGGFLVIKGGAHKSHKGGITIITFGGGHHGGFLVIKGGAHKSHKGGITIITFGGGHHGG
modifications: N-terminal 6xHis tag
Which results are given for B1?
survival rate by treatment frequency [1]: highest survival rate; AUC values and half-life [2]: well maintained in the blood at effective drug concentrations; production of pro-inflammatory cytokines [3]: negligible; epithelial-to-mesenchymal transition in tumors (profiler PCR array) (OxaR HCT116 xenograft; HCT116 xenografts): regulates the involvement of epithelial-to-mesenchymal transition; interaction of S100 and PRRs in xenograft tumors (OxaR HCT116 xenograft; Western blot): significantly reduced; expression of E-cadherin in tumor sections (OxaR HCT116 xenograft; [6]): increased; expression of N-cadherin and β-catenin in tumor sections (OxaR HCT116 xenograft; [6]): decreased; tumor growth (OxaR HCT116 xenograft; initially growing and actively growing tumors): significantly inhibited tumor growth; production of specific anti-rCT-S100A8/A9 antibodies [4]: negligible compared to that induced by ovalbumin; Stability (% remaining after 30 min) | HLM [5]: 92.1 % remaining after 30 min
